The values that follow come from patent US20160264649A1.

What all share (assay): cell-based or functional assay
Assay [1] deals with HIV-1 Env of isolate 6535.3 (subtype B) (HIV-1).
Assay [2] has as its target HIV-1 Env of isolate 92UG024 (subtype D) (HIV-1).
Assay [3] concerns the target HIV-1 Env of isolate 92UG031 (subtype A) (HIV-1).
Assay [4] addresses HIV-1 Env of isolate 92UG114 (subtype D) (HIV-1).
The target of assay [5] is HIV-1 Env of isolate 92WR020 (subtype A) (HIV-1).
The target in assay [6] is HIV-1 Env of isolate 92WR024 (subtype A) (HIV-1).
The target of assay [7] is HIV-1 Env of isolate 93TH305 (subtype B) (HIV-1).
Assay [8] addresses HIV-1 Env of isolate 93WR029 (subtype A) (HIV-1).
Assay [9] addresses HIV-1 Env of isolate 94 KE 105 (subtype AC) (HIV-1).
Assay [10] concerns the target HIV-1 Env of isolate 94UG103 (subtype A) (HIV-1).
Assay [11] has as its target HIV-1 Env of isolate 97ZA012 (subtype C) (HIV-1).
The target in assay [12] is HIV-1 Env of isolate APV_17 (subtype B) (HIV-1).
Assay [13] addresses HIV-1 Env of isolate APV_6 (subtype B) (HIV-1).
For assay [14], the target named is HIV-1 Env of isolate JRCSF (subtype B) (HIV-1) (UniProt P20871).
In assay [15] the target is HIV-1 Env of isolate MG RM-C-024 (subtype C) (HIV-1).
For assay [16], the target named is HIV-1 Env of isolate MG RM-C-026 (subtype C) (HIV-1).
For assay [17], the target named is HIV-1 Env of isolate MG RM-C-027 (subtype C) (HIV-1).
The target in assay [18] is HIV-1 Env of isolate MG RM-C-028 (subtype C) (HIV-1).
The target in assay [19] is HIV-1 Env of isolate MGRM-AE-002 (subtype AE) (HIV-1).
In assay [20] the target is HIV-1 Env of isolate MGRM-AE-003 (subtype AE) (HIV-1).
For assay [21], the target named is HIV-1 Env of isolate MGRM-AE-005 (subtype AE) (HIV-1).
Assay [22] deals with HIV-1 Env of isolate MGRM-AE-007 (subtype AE) (HIV-1).
The target of assay [23] is HIV-1 Env of isolate MGRM-Chronic-B-004 (subtype B) (HIV-1).
For assay [24], the target named is HIV-1 Env of isolate MGRM-Chronic-B-008 (subtype B) (HIV-1).
Assay [25] addresses HIV-1 Env of isolate MGRM-Chronic-B-010 (subtype B) (HIV-1).
The target in assay [26] is HIV-1 Env of isolate MGRM-Chronic-B-018 (subtype B) (HIV-1).
The target in assay [27] is HIV-1 Env of isolate MGRM-Chronic-B-023 (subtype B) (HIV-1).
The target in assay [28] is HIV-1 Env of isolate MGRM-D-003 (subtype D) (HIV-1).
Assay [29] concerns the target HIV-1 Env of isolate MGRM-D-004 (subtype D) (HIV-1).
Assay [30] has as its target HIV-1 Env of isolate MGRM-D-008 (subtype D) (HIV-1).
The target of assay [31] is HIV-1 Env of isolate MGRM-D-013 (subtype D) (HIV-1).
In assay [32] the target is HIV-1 Env of isolate MGRM-D-014 (subtype D) (HIV-1).
For assay [33], the target named is HIV-1 Env of isolate MGRM-D-020 (subtype D) (HIV-1).
Assay [34] has as its target HIV-1 Env of isolate MGRM-F1-004 (subtype F) (HIV-1).
The target of assay [35] is HIV-1 Env of isolate MGRM-F1-006 (subtype F) (HIV-1).
The target in assay [36] is HIV-1 Env of isolate MGRM-F1-010 (subtype F) (HIV-1).
Assay [37] concerns the target HIV-1 Env of isolate MGRM-F1-013 (subtype F) (HIV-1).
Assay [38] concerns the target HIV-1 Env of isolate MGRM-F1-016 (subtype F) (HIV-1).
Assay [39] concerns the target HIV-1 Env of isolate MGRM-F1-018 (subtype F) (HIV-1).
Assay [40] deals with HIV-1 Env of isolate PVO.4 (subtype B) (HIV-1).
The target in assay [41] is HIV-1 Env of isolate THR0.18 (subtype B) (HIV-1).
In assay [42] the target is HIV-1 Env of isolate TRO.11 (subtype B) (HIV-1).
Assay [43] has as its target HIV-1 Env of isolate VLGCA1 (subtype A) (HIV-1).
The target in assay [44] is HIV-1 Env of pseudovirus isolate MGRM-G-011 (subtype G) (HIV-1).
Assay [45] concerns the target HIV-1 Env of pseudovirus isolate MGRM-G-014 (subtype G) (HIV-1).
The target of assay [46] is HIV-1 Env of pseudovirus isolate MGRM-G-028 (subtype G) (HIV-1).
In assay [47] the target is HIV-1 MGRM-F1-013 Env (HIV-1).

Some results are limits rather than exact numbers.

For PGV04 (antibody), the IC50 in assay [1] came out at 0.757 µg/mL; in assay [7], 0.255 µg/mL; in assay [12], 0.309 µg/mL; in [13] it was 24.2 µg/mL; in [23], 0.047 µg/mL; in assay [24] it was 0.166 µg/mL. The half-maximal inhibitory concentration (IC50) is 0.744 µg/mL in assay [25]; 0.164 µg/mL in assay [26]; 0.139 µg/mL in assay [27]; 0.454 µg/mL in [40]; 0.78 µg/mL in assay [44]; 0.056 µg/mL in assay [45]. In addition, in assay [46], the IC50 turned out to be 0.352 µg/mL. The substance also had an IC50 (neutralization) in assay [2] of 0.201 µg/mL. The IC50 (pseudovirus neutralization) in assay [3] is 4.46 µg/mL; in assay [4], 0.461 µg/mL; in [5], 0.055 µg/mL; in assay [6], 0.31 µg/mL; in assay [8] it was 0.54 µg/mL; in assay [9] it was 2.98 µg/mL. Besides, the IC50 (pseudovirus neutralization) in assay [10] was 0.202 µg/mL; in assay [19], 0.569 µg/mL; in [20] it was 6.4 µg/mL; in [21] it was 0.051 µg/mL; in assay [22], 5.75 µg/mL; in [28], more than 50 µg/mL. Further, the IC50 (pseudovirus neutralization) in assay [29] was determined as 43.2 µg/mL; in [30] it was 3.56 µg/mL; in [31], 0.088 µg/mL; in [32] it was 0.194 µg/mL; in assay [33] it was 0.097 µg/mL; in assay [34], 0.58 µg/mL. For the same substance, the IC50 (pseudovirus neutralization) in [35] is more than 50 µg/mL; in [36], 0.184 µg/mL; in assay [37], 0.084 µg/mL; in [38], 0.268 µg/mL; in assay [39], 0.027 µg/mL; in assay [43] it was 0.024 µg/mL. Further, the IC50 (µg/mL), pseudovirus neutralization in assay [11] was 0.041 µg/mL; in [14] it was 0.078 µg/mL; in assay [15], more than 50 µg/mL; in assay [16] it was 0.303 µg/mL; in [17], 2.76 µg/mL; in assay [18] it was 0.149 µg/mL. The IC50 (µg/mL), pseudovirus neutralization was more than 50 µg/mL in [41] and 0.121 µg/mL in assay [42].

In [47], 2G12 (antibody) came in with an IC50 (pseudovirus neutralization) of more than 50 µg/mL.

The substance 1495_C14 (PGC14) (antibody) showed an IC50 (pseudovirus neutralization) in [47] of 6 µg/mL.

As for VRC01 (antibody), the IC50 in [1] amounted to 1.75 µg/mL; in assay [7], 0.243 µg/mL; in assay [11], 0.088 µg/mL; in assay [12], 0.477 µg/mL; in assay [13] it was 1.81 µg/mL; in [14] it was 0.164 µg/mL. In addition, the IC50 is 3.4 µg/mL in assay [15]; 0.707 µg/mL in assay [16]; 0.125 µg/mL in [17]; 0.319 µg/mL in assay [18]; 0.055 µg/mL in assay [23]; 0.155 µg/mL in assay [24]. The IC50 in assay [25] stood at 0.156 µg/mL; in assay [26], 0.328 µg/mL; in assay [27], 0.275 µg/mL; in assay [40] it was 0.218 µg/mL; in assay [41], 2.46 µg/mL; in assay [42] it was 0.186 µg/mL. Further, the results for the IC50 in [44], in [45] and in [46] were 0.065 µg/mL, 0.056 µg/mL and 0.164 µg/mL, respectively. In assay [2], the IC50 (neutralization) was 0.576 µg/mL. Moreover, the IC50 (pseudovirus neutralization) in assay [3] is 0.469 µg/mL; in [4], 0.33 µg/mL; in assay [5], 0.13 µg/mL; in [6] it was 0.327 µg/mL; in assay [8], 1.57 µg/mL; in assay [9] it was 0.499 µg/mL. The IC50 (pseudovirus neutralization) in assay [10] came out at 0.285 µg/mL; in assay [19] it was 0.217 µg/mL; in assay [20] it was 0.685 µg/mL; in assay [21], 0.029 µg/mL; in assay [22], 0.835 µg/mL; in [28] it was 2.06 µg/mL. Also, the IC50 (pseudovirus neutralization) came to 1.25 µg/mL in assay [29]; 0.854 µg/mL in assay [30]; 0.087 µg/mL in assay [31]; 0.332 µg/mL in assay [32]; 0.192 µg/mL in assay [33]; 0.305 µg/mL in assay [34]. The IC50 (pseudovirus neutralization) stood at 2.86 µg/mL in assay [35]; 0.097 µg/mL in assay [36]; 0.17 µg/mL in [37]; 0.517 µg/mL in [38]; 0.032 µg/mL in assay [39]; 0.163 µg/mL in [43].

Consider 2F5 (antibody), for which the IC50 (pseudovirus neutralization) in [47] is 4.57 µg/mL.

In assay [47], b12 (antibody) had an IC50 (pseudovirus neutralization) of more than 50 µg/mL.
